Experimental data published in patent US20140148387A1.

Key:
[1] = molecular target: T1, activine type IIB receptor (ActRIIB) extracellular domain; assay: SPR, BIAcore 2000; analyte Ala-BMP-2, ligand ActRIIBecd; freeze-dried preparation preserved at 40 ± 2° C., relative humidity 75 ± 5%, for 3 months
T1 sequence (Q13705 19-137, species assumed, looked up): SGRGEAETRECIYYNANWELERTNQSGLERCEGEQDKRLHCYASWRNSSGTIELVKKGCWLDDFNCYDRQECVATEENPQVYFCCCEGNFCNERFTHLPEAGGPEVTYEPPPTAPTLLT

[2] = molecular target: T1, activine type IIB receptor (ActRIIB) extracellular domain; assay: SPR, BIAcore 2000; analyte Ala-BMP-2, ligand ActRIIBecd; freeze-dried preparation preserved at 5 ± 3° C. for 3 months
[3] = molecular target: T1, activine type IIB receptor (ActRIIB) extracellular domain; assay: SPR, BIAcore 2000; analyte Ala-BMP-2, ligand ActRIIBecd; redissolved freeze-dried preparation at start of test
[4] = molecular target: T1, activine type IIB receptor (ActRIIB) extracellular domain; assay: SPR, BIAcore 2000; analyte Ala-BMP-2, ligand ActRIIBecd; freeze-dried preparation preserved at 25 ± 2° C., relative humidity 60 ± 5%, for 3 months

B1: active type human bone morphogenetic protein-2 homodimer added with an alanine residue to the N-terminus (ligand)
chain: AQAKHKQRKRLKSSCKRHPLYVDFSDVGWNDWIVAPPGYHAFYCHGECPFPLADHLNSTNHAIVQTLVNSVNSKIPKACCVPTELSAISMLYLDENEKVVLKNYQDMVVEGCGCR
[1]
  Biacore assay, relative value to provisional reference substance of Ala-BMP-2 as 100%: 97.7%
[2]
  Biacore assay, relative value to provisional reference substance of Ala-BMP-2 as 100%: 100%
[3]
  Biacore assay, relative value to provisional reference substance of Ala-BMP-2 as 100%: 98.2%
[4]
  Biacore assay, relative value to provisional reference substance of Ala-BMP-2 as 100%: 98.9%
